Values quoted from earlier work in publication PMC8808565 (iScience, 2022).

System: ACE2

B1: human defensin 5 (protein, UniProt Q01523 20-94, looked up)
Defensin alpha 5: ESLQERADEATTQKQSGEDNQDLAISFAGNGLSALRTSGSQARATCYCRTGRCATRESLSGVCEISGRLYRLCCR
modifications: Defensin-5
  target (in words): target ACE2
